Source: patent US20260001928A1 (CORTERIA PHARMACEUTICALS, priority 2022, published 2026)
*1 amine or outer side, *2 acyl side, *3 side chain or, on linkers, in order; H or OH if unused. Side-chain parts run from the residue outwards. [ ]: non-standard residue; d: D form. The star is where a group is joined. C20 diacid = O=C(O)CCCCCCCCCCCCCCCCCCC(=O)*; γGlu = O=C(O)[C@H](CCC(=O)[*:2])N[*:1]; Lauroyl = CCCCCCCCCCCC(=O)*; Decanoyl = CCCCCCCCCC(=O)*; Pentanoyl = CCCCC(=O)*; Aib = CC(C)(N)C(=O)O

T1: CRF1R receptor (UniProt P34998 24-415, limits assumed)
T1 sequence (looked up): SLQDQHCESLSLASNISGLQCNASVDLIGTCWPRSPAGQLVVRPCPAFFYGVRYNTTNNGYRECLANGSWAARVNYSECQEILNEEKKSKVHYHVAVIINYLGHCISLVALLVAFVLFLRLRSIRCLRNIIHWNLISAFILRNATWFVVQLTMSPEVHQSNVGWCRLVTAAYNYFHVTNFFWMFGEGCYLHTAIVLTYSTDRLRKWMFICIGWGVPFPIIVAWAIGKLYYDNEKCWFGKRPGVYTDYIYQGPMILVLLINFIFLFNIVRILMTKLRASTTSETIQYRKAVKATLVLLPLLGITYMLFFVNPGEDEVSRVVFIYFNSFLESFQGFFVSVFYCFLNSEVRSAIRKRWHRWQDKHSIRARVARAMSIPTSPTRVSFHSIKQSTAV

B1: SEQ ID NO 219 (peptide)
peptide: Pentanoyl-VLSLD[dV]PIKLK([γGlu-C20 diacid])KILLEQEKQKKQREQAETN[Aib]QILAQV-NH2
SMILES: CCCCC(=O)N[C@H](C(=O)N[C@@H](CC(C)C)C(=O)N[C@@H](CO)C(=O)N[C@@H](CC(C)C)C(=O)N[C@@H](CC(=O)O)C(=O)N[C@@H](C(=O)N1CCC[C@H]1C(=O)N[C@H](C(=O)N[C@@H](CCCCN)C(=O)N[C@@H](CC(C)C)C(=O)N[C@@H](CCCCNC(=O)CC[C@H](NC(=O)CCCCCCCCCCCCCCCCCCC(=O)O)C(=O)O)C(=O)N[C@@H](CCCCN)C(=O)N[C@H](C(=O)N[C@@H](CC(C)C)C(=O)N[C@@H](CC(C)C)C(=O)N[C@@H](CCC(=O)O)C(=O)N[C@@H](CCC(N)=O)C(=O)N[C@@H](CCC(=O)O)C(=O)N[C@@H](CCCCN)C(=O)N[C@@H](CCC(N)=O)C(=O)N[C@@H](CCCCN)C(=O)N[C@@H](CCCCN)C(=O)N[C@@H](CCC(N)=O)C(=O)N[C@@H](CCCNC(=N)N)C(=O)N[C@@H](CCC(=O)O)C(=O)N[C@@H](CCC(N)=O)C(=O)N[C@@H](C)C(=O)N[C@@H](CCC(=O)O)C(=O)N[C@H](C(=O)N[C@@H](CC(N)=O)C(=O)NC(C)(C)C(=O)N[C@@H](CCC(N)=O)C(=O)N[C@H](C(=O)N[C@@H](CC(C)C)C(=O)N[C@@H](C)C(=O)N[C@@H](CCC(N)=O)C(=O)N[C@H](C(N)=O)C(C)C)[C@@H](C)CC)[C@@H](C)O)[C@@H](C)CC)[C@@H](C)CC)C(C)C)C(C)C
B2: SEQ ID NO 222 (peptide)
peptide: Pentanoyl-VLSLD[dV]PIKLK([γGlu-C20 diacid])KILLEQEKQKAQREQAETN[Aib]QILAQV-NH2
SMILES: CCCCC(=O)N[C@H](C(=O)N[C@@H](CC(C)C)C(=O)N[C@@H](CO)C(=O)N[C@@H](CC(C)C)C(=O)N[C@@H](CC(=O)O)C(=O)N[C@@H](C(=O)N1CCC[C@H]1C(=O)N[C@H](C(=O)N[C@@H](CCCCN)C(=O)N[C@@H](CC(C)C)C(=O)N[C@@H](CCCCNC(=O)CC[C@H](NC(=O)CCCCCCCCCCCCCCCCCCC(=O)O)C(=O)O)C(=O)N[C@@H](CCCCN)C(=O)N[C@H](C(=O)N[C@@H](CC(C)C)C(=O)N[C@@H](CC(C)C)C(=O)N[C@@H](CCC(=O)O)C(=O)N[C@@H](CCC(N)=O)C(=O)N[C@@H](CCC(=O)O)C(=O)N[C@@H](CCCCN)C(=O)N[C@@H](CCC(N)=O)C(=O)N[C@@H](CCCCN)C(=O)N[C@@H](C)C(=O)N[C@@H](CCC(N)=O)C(=O)N[C@@H](CCCNC(=N)N)C(=O)N[C@@H](CCC(=O)O)C(=O)N[C@@H](CCC(N)=O)C(=O)N[C@@H](C)C(=O)N[C@@H](CCC(=O)O)C(=O)N[C@H](C(=O)N[C@@H](CC(N)=O)C(=O)NC(C)(C)C(=O)N[C@@H](CCC(N)=O)C(=O)N[C@H](C(=O)N[C@@H](CC(C)C)C(=O)N[C@@H](C)C(=O)N[C@@H](CCC(N)=O)C(=O)N[C@H](C(N)=O)C(C)C)[C@@H](C)CC)[C@@H](C)O)[C@@H](C)CC)[C@@H](C)CC)C(C)C)C(C)C
B3: SEQ ID NO 221 (peptide)
peptide: Pentanoyl-VLSLD[dV]PIKLK([γGlu-C20 diacid])KILLEQEAQKKQREQAETN[Aib]QILAQV-NH2
SMILES: CCCCC(=O)N[C@H](C(=O)N[C@@H](CC(C)C)C(=O)N[C@@H](CO)C(=O)N[C@@H](CC(C)C)C(=O)N[C@@H](CC(=O)O)C(=O)N[C@@H](C(=O)N1CCC[C@H]1C(=O)N[C@H](C(=O)N[C@@H](CCCCN)C(=O)N[C@@H](CC(C)C)C(=O)N[C@@H](CCCCNC(=O)CC[C@H](NC(=O)CCCCCCCCCCCCCCCCCCC(=O)O)C(=O)O)C(=O)N[C@@H](CCCCN)C(=O)N[C@H](C(=O)N[C@@H](CC(C)C)C(=O)N[C@@H](CC(C)C)C(=O)N[C@@H](CCC(=O)O)C(=O)N[C@@H](CCC(N)=O)C(=O)N[C@@H](CCC(=O)O)C(=O)N[C@@H](C)C(=O)N[C@@H](CCC(N)=O)C(=O)N[C@@H](CCCCN)C(=O)N[C@@H](CCCCN)C(=O)N[C@@H](CCC(N)=O)C(=O)N[C@@H](CCCNC(=N)N)C(=O)N[C@@H](CCC(=O)O)C(=O)N[C@@H](CCC(N)=O)C(=O)N[C@@H](C)C(=O)N[C@@H](CCC(=O)O)C(=O)N[C@H](C(=O)N[C@@H](CC(N)=O)C(=O)NC(C)(C)C(=O)N[C@@H](CCC(N)=O)C(=O)N[C@H](C(=O)N[C@@H](CC(C)C)C(=O)N[C@@H](C)C(=O)N[C@@H](CCC(N)=O)C(=O)N[C@H](C(N)=O)C(C)C)[C@@H](C)CC)[C@@H](C)O)[C@@H](C)CC)[C@@H](C)CC)C(C)C)C(C)C
B4: SEQ ID NO 220 (peptide)
peptide: Pentanoyl-VLSLD[dV]PIKLK([γGlu-C20 diacid])KILLEQEKQK[Aib]QREQAETN[Aib]QILAQV-NH2
SMILES: CCCCC(=O)N[C@H](C(=O)N[C@@H](CC(C)C)C(=O)N[C@@H](CO)C(=O)N[C@@H](CC(C)C)C(=O)N[C@@H](CC(=O)O)C(=O)N[C@@H](C(=O)N1CCC[C@H]1C(=O)N[C@H](C(=O)N[C@@H](CCCCN)C(=O)N[C@@H](CC(C)C)C(=O)N[C@@H](CCCCNC(=O)CC[C@H](NC(=O)CCCCCCCCCCCCCCCCCCC(=O)O)C(=O)O)C(=O)N[C@@H](CCCCN)C(=O)N[C@H](C(=O)N[C@@H](CC(C)C)C(=O)N[C@@H](CC(C)C)C(=O)N[C@@H](CCC(=O)O)C(=O)N[C@@H](CCC(N)=O)C(=O)N[C@@H](CCC(=O)O)C(=O)N[C@@H](CCCCN)C(=O)N[C@@H](CCC(N)=O)C(=O)N[C@@H](CCCCN)C(=O)NC(C)(C)C(=O)N[C@@H](CCC(N)=O)C(=O)N[C@@H](CCCNC(=N)N)C(=O)N[C@@H](CCC(=O)O)C(=O)N[C@@H](CCC(N)=O)C(=O)N[C@@H](C)C(=O)N[C@@H](CCC(=O)O)C(=O)N[C@H](C(=O)N[C@@H](CC(N)=O)C(=O)NC(C)(C)C(=O)N[C@@H](CCC(N)=O)C(=O)N[C@H](C(=O)N[C@@H](CC(C)C)C(=O)N[C@@H](C)C(=O)N[C@@H](CCC(N)=O)C(=O)N[C@H](C(N)=O)C(C)C)[C@@H](C)CC)[C@@H](C)O)[C@@H](C)CC)[C@@H](C)CC)C(C)C)C(C)C
B5: SEQ ID NO 224 (peptide)
peptide: Lauroyl-VLSLD[dV]PIKLK([γGlu-C20 diacid])KILLEQEKQKKQREQAETN[Aib]QILAQV-NH2
SMILES: CCCCCCCCCCCC(=O)N[C@H](C(=O)N[C@@H](CC(C)C)C(=O)N[C@@H](CO)C(=O)N[C@@H](CC(C)C)C(=O)N[C@@H](CC(=O)O)C(=O)N[C@@H](C(=O)N1CCC[C@H]1C(=O)N[C@H](C(=O)N[C@@H](CCCCN)C(=O)N[C@@H](CC(C)C)C(=O)N[C@@H](CCCCNC(=O)CC[C@H](NC(=O)CCCCCCCCCCCCCCCCCCC(=O)O)C(=O)O)C(=O)N[C@@H](CCCCN)C(=O)N[C@H](C(=O)N[C@@H](CC(C)C)C(=O)N[C@@H](CC(C)C)C(=O)N[C@@H](CCC(=O)O)C(=O)N[C@@H](CCC(N)=O)C(=O)N[C@@H](CCC(=O)O)C(=O)N[C@@H](CCCCN)C(=O)N[C@@H](CCC(N)=O)C(=O)N[C@@H](CCCCN)C(=O)N[C@@H](CCCCN)C(=O)N[C@@H](CCC(N)=O)C(=O)N[C@@H](CCCNC(=N)N)C(=O)N[C@@H](CCC(=O)O)C(=O)N[C@@H](CCC(N)=O)C(=O)N[C@@H](C)C(=O)N[C@@H](CCC(=O)O)C(=O)N[C@H](C(=O)N[C@@H](CC(N)=O)C(=O)NC(C)(C)C(=O)N[C@@H](CCC(N)=O)C(=O)N[C@H](C(=O)N[C@@H](CC(C)C)C(=O)N[C@@H](C)C(=O)N[C@@H](CCC(N)=O)C(=O)N[C@H](C(N)=O)C(C)C)[C@@H](C)CC)[C@@H](C)O)[C@@H](C)CC)[C@@H](C)CC)C(C)C)C(C)C
B6: SEQ ID NO 223 (peptide)
peptide: Decanoyl-VLSLD[dV]PIKLK([γGlu-C20 diacid])KILLEQEKQKKQREQAETN[Aib]QILAQV-NH2
SMILES: CCCCCCCCCC(=O)N[C@H](C(=O)N[C@@H](CC(C)C)C(=O)N[C@@H](CO)C(=O)N[C@@H](CC(C)C)C(=O)N[C@@H](CC(=O)O)C(=O)N[C@@H](C(=O)N1CCC[C@H]1C(=O)N[C@H](C(=O)N[C@@H](CCCCN)C(=O)N[C@@H](CC(C)C)C(=O)N[C@@H](CCCCNC(=O)CC[C@H](NC(=O)CCCCCCCCCCCCCCCCCCC(=O)O)C(=O)O)C(=O)N[C@@H](CCCCN)C(=O)N[C@H](C(=O)N[C@@H](CC(C)C)C(=O)N[C@@H](CC(C)C)C(=O)N[C@@H](CCC(=O)O)C(=O)N[C@@H](CCC(N)=O)C(=O)N[C@@H](CCC(=O)O)C(=O)N[C@@H](CCCCN)C(=O)N[C@@H](CCC(N)=O)C(=O)N[C@@H](CCCCN)C(=O)N[C@@H](CCCCN)C(=O)N[C@@H](CCC(N)=O)C(=O)N[C@@H](CCCNC(=N)N)C(=O)N[C@@H](CCC(=O)O)C(=O)N[C@@H](CCC(N)=O)C(=O)N[C@@H](C)C(=O)N[C@@H](CCC(=O)O)C(=O)N[C@H](C(=O)N[C@@H](CC(N)=O)C(=O)NC(C)(C)C(=O)N[C@@H](CCC(N)=O)C(=O)N[C@H](C(=O)N[C@@H](CC(C)C)C(=O)N[C@@H](C)C(=O)N[C@@H](CCC(N)=O)C(=O)N[C@H](C(N)=O)C(C)C)[C@@H](C)CC)[C@@H](C)O)[C@@H](C)CC)[C@@H](C)CC)C(C)C)C(C)C

Assays:
CRF1R receptor = target: T1, CRF1R receptor; assay: cell-based or functional assay
[1] = target: human corticotropin-releasing factor 2a (CRF2a receptor) (human), Q13324; assay: cell-based or functional assay
Sequence of human corticotropin-releasing factor 2a (CRF2a receptor) (human), Q13324 (Q13324 20-411): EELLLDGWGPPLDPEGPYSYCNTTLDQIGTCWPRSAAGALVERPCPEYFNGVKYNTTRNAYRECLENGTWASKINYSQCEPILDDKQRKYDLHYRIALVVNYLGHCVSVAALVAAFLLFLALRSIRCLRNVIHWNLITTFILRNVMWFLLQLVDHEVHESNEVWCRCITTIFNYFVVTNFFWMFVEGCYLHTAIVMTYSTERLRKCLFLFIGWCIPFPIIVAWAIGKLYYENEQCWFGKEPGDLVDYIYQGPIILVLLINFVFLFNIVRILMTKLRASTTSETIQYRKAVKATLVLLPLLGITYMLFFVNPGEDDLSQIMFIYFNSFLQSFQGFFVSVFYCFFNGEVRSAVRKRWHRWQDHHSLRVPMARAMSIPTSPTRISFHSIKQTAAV

Binder | EC50 (CRF1R receptor) [pM] | Emax (% I) (CRF1R receptor) [%] | EC50 [nM] (cAMP) [1]
B1 | 222000 | 48 | 0.16
B2 | 196000 | 50 | 0.14
B3 | 22500 | 79 | 0.18
B4 | – | 32 | 0.27
B5 | 39500 | 66 | 0.07
B6 | 152000 | 58 | 0.08
